Positions count from the first letter of the chain named.
B1: N-terminally V5 epitope-tagged (full-length) [mouse] / C-terminal GFP-tagged Atg16L1 WT (full-length) [mouse] (parent)
chain 1: MTSEMESSLEVSFSSSCAVSGASGCLPPARSRIFKIIVIGDSNVGKTCLTYRFCAGRFPDRTEATIGVDFRERAVDIDGERIKIQLWDTAGLERFRKSMVQHYYRNVHAVVFVYDMTNMASFHSLPAWIEECKQHLLANDIPRILVGNKCDLRSAIQVPTDLAQKFADTHSMPLFETSAKNPNDNDHVEAIFMTLAHKLKSHKPLMLSQLPDNRISLKPETKPAVTCWC
chain 2: MSSGLRAADFPRWKRHIAEELRRRDRLQRQAFEEIILQYTKLLEKSDLHSVLTQKLQAEKHDMPNRHEISPGHDGAWNDSQLQEMAQLRIKHQEELTELHKKRGELAQLVIDLNNQMQQKDKEIQMNEAKISEYLQTISDLETNCLDLRTKLQDLEVANQTLKDEYDALQITFTALEEKLRKTTEENQELVTRWMAEKAQEANRLNAENEKDSRRRQARLQKELAEAAKEPLPVEQDDDIEVIVDETSDHTEETSPVRAVSRAATKRLSQPAGGLLDSITNIFGRRSVSSIPVPQDIMDTHPASGKDVRVPTTASYVFDAHDGEVNAVQFSPGSRLLATGGMDRRVKLWEAFGDKCEFKGSLSGSNAGITSIEFDSAGAYLLAASNDFASRIWTVDDYRLRHTLTGHSGKVLSAKFLLDNARIVSGSHDRTLKLWDLRSKVCIKTVFAGSSCNDIVCTEQCVMSGHFDKKIRFWDIRSESVVREMELLGKITALDLNPERTELLSCSRDDLLKVIDLRTNAVKQTFSAPGFKCGSDWTRVVFSPDGSYVAAGSAEGSLYVWSVLTGKVEKVLSKQHSSSINAVAWAPSGLHVVSVDKGSRAVLWAQP
B2: N-terminally V5 epitope-tagged WT (full-length) [mouse] / C-terminal GFP-tagged Atg16L1 WT (full-length) [mouse] (parent)
chain 1: B1 chain 1 with L92Q
chain 2: B1 chain 2

Variants of: B1
Assay: GFP co-immunoprecipitation, western blot band quantification
Details: with C-terminal GFP-tagged Atg16L1 WT (full-length) [mouse]; Overexpression was done in HEK293 cells; read off a plot

Row | response [a.u.] | Variant
1 | 0.32 | chain 1 F70E
2 | 0.04 | chain 1 F70A

Same assay, conditions: with N-terminally V5 epitope-tagged Rab33B Q92L (full-length) [mouse]; Overexpression was done in HEK293 cells; read off a plot

Row | response [a.u.] | Variant
3 | 0.13 | chain 2 K198A
4 | 0.06 | chain 2 A202W
5 | 0.12 | chain 2 N206K

Variants of: B2
Assay: as above
Details: with C-terminal GFP-tagged Atg16L1 WT (full-length) [mouse]; Overexpression was done in HEK293 cells; read off a plot

Row | response [a.u.] | Variant
6 | 0.6 | chain 1 T47N
